Test results from the nanobody polyreactivity screen of Harvey et al. (2022).

Assay: yeast display, Sf9 membrane polyspecificity reagent, FACS + sequencing; frameworks hold sequencing errors
Outline: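 A synthetic nanobody library was expressed on Saccharomyces cerevisiae BJ5465 by galactose induction for 36–48 hours. The library was stained for 1 hour at 4 °C with 10% biotinylated, detergent-solubilized Sf9 membrane reagent and enriched with streptavidin microbeads before FACS. Low and high (top ~1%) gates were set on anti-HA fluorescence for expression and streptavidin fluorescence for reagent binding, and each polyreactivity label reflects the gate of origin.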

Row | Sequence | polyreactivity (PSR sort gate)
1 | QVQLVESGAGLVQAGGSLRLSCAPSGNIFSVYAMGWYRHAPGKARELVARITKTVGGTYYADSVKGRFTISRDNAKNTVYLQMNSLKPEDTAVYYCAARVWTGNGGSKGAYDYWGQGTQVTVSS | high polyreactivity
2 | QVQLVESGGGLVQAGGSLRLSCAASGRTFGYYTMGWYRQAPGKEWELVATITRGGTTKYADSVKGRFTISRDNAKNTVYLQMNSLKPEDTAVYYCNARERGSRQYTFDYWGQGTQVTVSS | high polyreactivity
3 | QLQLVESGRGLVQAGGSLRLSCAASGSTFQLYTMGLYRQAPGKERELVAAITGSGGSTYYADSVKGRFTISRDNAKNTVYLQMNSLKPEDTAVYYCAAKSSFRIAWEYYYWGQGTQGTVSS | high polyreactivity
4 | QVQLVESGGGLVQAGGSLRLSCAASGFIFTFYAMGWYRQAPGKEREFVASIDWGDGSTYYADSVKGRFTISRDNAKNTVYLQMNSLKPEDSAVYYCAHDYDGYVWDTEYDYWGQGTQVTVSS | low polyreactivity
5 | QVQLVESGGGLVQAGGSLRLSCAASGSIFTPYAMGWYRQAPGKERELVAAISSDGSTYYADSVKGRFTISRDNAKNTVYLQMNSLKTEDTAVYYCAAEYSWYYYYLFVGEYDYWGQGTQVTVSS | low polyreactivity
6 | QVQLVESGGGLVQAGGSLRLSCAASGNIFLYYAMGWYRQAPGKERELVARIDSGGSTYYADSVKGRFTISRDNAKNTVYLQMNSLKPEDTAVYYCATDEGTVGGQQLRPLMDYWGQGTQVTVSS | low polyreactivity
7 | QVQLVESGGGLVQAGGSLRLSCAASGSTFGYNAMGWYRQAPGKERELVAAISSSGGSTYYADSVKGRFTISRDNAKNTVYLQMNSLKPEDTAVYYCATEFFQYYSTKGYDYWGQGTQVTVSS | low polyreactivity
8 | QVQLVESGGGLVQAGGSLRLSCAASGSIFYVYAMGWYRQAPGKERELVADITTRDGDTYYADSVKGRFTISRDNAKNTVYLQMNSLKPEDTAVYYCAADLNAYPQRAYDYWGQGTQVTVSS | low polyreactivity
9 | QVQLVESAGGLVQARGSLRLSCAASGINFDWYTMGWYRKAPGKERELVAAISWRGGRTYYADSVKGRFTISRDNAKNTVYLQMNSLKPEDTAVYYCAAEAPVQPFYVFNTGIYELDYWGQGTQVTVSS | low polyreactivity
10 | QVQLVESGGGLVQAGGSLRLSCAASGLTFAYNGLGWYRQAPGKEGELVAEISASGASTYYADSVKGRFTISRDNAKNTVYLQMNSLKPEDTAVYYCAAPAPYDGHYSIYSWAYTDDYWGQGTQVTVSS | low polyreactivity
11 | QVQLVESGGCLVQAGGSLRLSCAASGRTFRGYAMGWYRQAPGKERELVARISVSGGSTYYADSVKGRFTISRDNAKNTVYLQMNSLTPDDTAVYYCNARPYTYWRSQYDYWGQGTQVTVSS | high polyreactivity
12 | QVQLVESGGGLVQAGGSLRLSCAASGRIFVSYAMGWYRQAPGKERELVAAISSSGGSTYYADSVKGRFTISRDNAKNTVYLQMNSLKPEDTAVYYCNTDQRSRMDYWGQGTQVTVSS | low polyreactivity
13 | QVQLVESGGGLVQAGGRLRLSCAASVRIFRVYAMGWYRQEPGKERELVAAISWSGGRTYYADSVKGRFTISRDNAKNTVYLQMNSLKPEHTAVYYCAAVSGYALGYDYWGQGTQVTVSS | high polyreactivity
14 | QDHLVESGGGLVQAGGSLRLSCAASRRTLLRYAMGWYRQAPGKERELVAAISSSGGRTYYADSVKGRFTISRDNAKNTVYLQMNSLKPEDTAVYYCAAKSSYVGHDYWGQGTQVTVSS | high polyreactivity
15 | QVQLVESGGGLVQAGGSLRLSCAASGSTFVGNAMGWYRQAPGKERELVAAITGGGGSTNYADSVKGRFTISRDNAKNTVYLQMNSLKPEDTAVYYCAVEVYYTGFYYSPYAYDYWGQGTQVTVSS | low polyreactivity
16 | QVQLVESGGGLVQAGGSLRLSCAASGRTFYVYAMGWYRQAPGKVSELVAAISASGGRTYYADSVKGGFTISRDNAKNTVYLQMNSLKPEDTAVYYCAAEGRRGGKDYDYWGQGTQVTVSS | high polyreactivity
17 | QVQLVESGGGLVQAVGSLRLSCAASGLIFERYAMGSYIQAPGKEREFVAAISKRGGSTYYADSVKGRFTISRDNAKNTVYLQMNSLKPEDTAVYDCAVQPNYYGMGYCGQGTQVTVSS | high polyreactivity
18 | QVQLVESGGGLVQAGCSLRLSCAASGSIFGWYAMGWYRPAPGKERELVAAITLIGGSTYYADSVKGRFTISRDNAKNTVYLQMNSLKPEDTAVYYCNAVWYWGDMDYWGQGTQVTVSS | low polyreactivity
19 | QVQLEESGGGLVQAGGSLRLSCAASGRTFWVYAMGWYRQAPGKERELVAAISRSGVSTYYADSVKGRFTISRDNAKNTVYLQMNSLKPEDTAVYYWAAEARVQFSYDYWGQGTQVTVSS | low polyreactivity
20 | QVQLHESPGGLVLAGGSLRLSCAESGYISWSFTMGLYRKAPGKEREFVAGITYGGISYYADSVKGRFTISRDNAIITVYLQMNTLKPEDTAVYYCAAPQTNPYVYVYWGQGTQVTVSS | high polyreactivity

Row | Sequence | polyreactivity (PSR sort gate)
21 | QVQLVESGGGLVQAGGRLRLSCAASGSISVTKAMGWYRQAPGTERELVAAISGSGGSTYADSVKGRFTISRDNAKNTVYLQMNSLKPVDTAVYYCDRDRYYTREWYWYRHDHWGQGTQVTVSS | low polyreactivity
22 | QVQLVESGGGLVQAGGSLRLSCAASGSIIGDNTMGWYRPAPGKERELVAAISSSGSTYYADSVKGRFTISRDNAKNTVYLQMNSLKPEDTAVYYCAAYDYGHVEYGYWGQGSQVTVSS | low polyreactivity
23 | QVQLVESGGGLVQAGGSLRLSCAASGNIFDRYVMGWYRQAPGKERELVAAISVSGGSTYYADSVKGRFTISRDNAKNTVYLQMNSLKPEDTAVYYCAAHSRLINWYDYWGQGTQVTVSS | high polyreactivity
24 | QVQHVESGGGLVQAGGSLRLSCAASGRTFFANAMGWYRQAPGKERELVAAITSNTGSTYYADSVKGRFTISRDNAKNTVYLQMNSLKPEDTAVYYCAARGSPRKWTFHYYYWGQGTQVTVSS | high polyreactivity
25 | QVQLVESGGGLVQAGGSLRLSCAPSGFIFTLYAMGWYRQAPGKERELVASISSGGSTNYADSVKGRFTISRDNAKNTVYLQMHSLKPEATAVYYCDAYYYSKSDRFSGRYGRYYWGQVTQVTVSS | high polyreactivity
26 | QVQLVESGGGLVQAGGSLRLSCAASGYIFWLNALGWYRQAPGKERELVAAIRSSGGSTYYADSVKGRFTISRDNAKNTVYLQMNSLKPEDTAVYDCARRGYNWYTHFGYDYWGQGTQVTVSS | low polyreactivity
27 | QDQRVDSGGGLVQAGGSLRLSCAASGSNFQWNAMGSYRHATGKERELVAAISGTGGNTYYADSVKGRFTISRDNAKNTVYLQMNSLKREDTAVYYCNTDYGEYYSWYLQWWYIPFDYWGQGTQVTVSS | low polyreactivity
28 | QVQLVESGGGLVQAGGSLRLSCAASGRIFGYYTMGWYRQAPGKERELVAAINGRGTSTYYADSVKGRFTISRDNAKNTVYLQMNSLKPEDTAVYYCAAGGWGPTRAYDYWGQGTQVTVSS | high polyreactivity
29 | QVQLVESGGGLVQAGGSLRLSCAASGRIFVPYAMGWSRQAPGKEREFVAAISWNTGSTYYADSVKGRFTISRDNAKNTVYLQMNSLNPVDTAVYYCAAGSGVSYEGGYKINGYWGQGTQVTVSS | high polyreactivity
30 | QVQLVESGGGIVQAGCSLRLSCAASGRIFGYYSMGWYRQAPGKDTELVAAISNGGSTHYADSVKGRFTISRDNAKNTVYLHMNSLKPEDSAVYYCAARWHYGYYAYYYWGQGTQVTVSS | high polyreactivity
31 | QVQLVESGGGLVQAGGSLRLSCAASGFIFGPYAMGWYRQAPGKERELVAAISRRGGSTYYADSVKGRFTISRDNAKNTVYLHMNSLKPEDTAVYYCATAGWGEAEGGYWGQGTQVTVSS | high polyreactivity
32 | QVQLVESGGGLVQAGGSLRLSCAASGRIFGAYAMGWYRQAPGKERELVAAITSRGGNTYYADSVKGRFTISRDNAKNTVDLQMNSLKPEDTAVYYCAARHDKRRQYYFGQSAFDYWGQGTQVTVSS | low polyreactivity
33 | QVQLVESGGGLVQAGGSLRLSCAASGRIFSVYAMGWYRQAPGTERELVAVITTSGGSTYYADSVKGRFTISRGNAKNTVYLQMNSLKPEDTAVYYCNAEPWSYAIGSYEYWGQGTQVTVSS | high polyreactivity
34 | QVQLVESGGGLVQAGGSLRLSCAASGSTLYYYAMGWYRQAPGKERELVASITGSGGNTYYADSVKGRFTISRDNAKNTVYLQMNSLKPEDTAVYYCAKRHFYRHGAYGYWGQGTQVTVSS | high polyreactivity
35 | QVQLEESGGGLVQAGGSLRLSCAAAGLTFDVYAMGWYRPAPGNEMELVAAISSIGGSTYYADSVKGRFTISRDNAKNNVYLQMYSLKPEDTAVYYCSAAISLYSYDYWGQGTQVTVSS | low polyreactivity
36 | QVQLVESGGGLVQAGGSLRLSCAASGLIFESYVMGWYRQAPGKERELVAAIRSSGGSTYYADSVKGRFTISRDNAKNTVYLQMNSLKPEVTAVYYCSVKGYGEYDYWGQGTQVTVSS | low polyreactivity
37 | QVQLVESGGVLVQAGGSLRLSCAASGSTFRRYAMGWYRQAPGKERELVAAITTRGGSTYYADSVKGRFTISRDNAKNTVYLQMNSLKPEDTAVYYCARDYSTYLRTAGDYWGQGTQVTVSS | low polyreactivity
38 | QVQLVESGGGLVQAGGSRRLCCAASGITLPVYGMGWYIQAPGKERELVAVIDIVGITNYADSVKGRFPISRDNAKNTVYLMMNSLKPEDTAVYYCAKRYVYIADGGEYYYLGQGTQVTVSS | low polyreactivity
39 | QVQLQESAGGLVQAGDSQRMSCAASGNSFRFTDMGWYRQAPGKERELVAAINAGSTTYYADSVKGRFTISLDNAKNTVYLQMNSLKPEDTAVYYCAVYYLGSGTFGYWGQGAQVTVSS | high polyreactivity
40 | QVQLVESGGGLFQAGGTLRLSCDASGLIFLSYGMAWYRQAPGKERELVAAISSGGSTYYADSVKGRFTISRDNAKNTDYLQMNSLKPEDTAVYYCASEQPIEFDHWGQGTQVTVSS | low polyreactivity
